{"source": "patent US20050055741", "about": "“Plant transcriptional repressor, proteic nuclear factors binding thereto, and uses thereof” (published 2005)", "key": {"SEBF (recombinant) [1]": {"target": "T1, SEBF (recombinant) (Solanum tuberosum)", "T1 chain": "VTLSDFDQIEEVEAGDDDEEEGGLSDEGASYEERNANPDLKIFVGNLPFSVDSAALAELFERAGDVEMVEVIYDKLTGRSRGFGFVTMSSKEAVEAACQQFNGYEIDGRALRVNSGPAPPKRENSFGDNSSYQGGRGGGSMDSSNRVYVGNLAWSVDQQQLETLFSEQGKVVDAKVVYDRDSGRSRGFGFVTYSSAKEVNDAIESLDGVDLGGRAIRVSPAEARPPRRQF", "assay": "EMSA; specificity similar to native SEBF", "settings": "tags: GST fusion expressed in E. coli BL21; GST cleaved with thrombin; label: 32P", "description": "(§1) FIGS. 2A, 2B, 2C and 2D show mutational analysis of potato silencing element (SE). FIG. 2A: Schematic representation of the reporter constructs and mutant oligonucleotides used in this study. Reporter constructs contain the PR-10a promoter region from −135 to +136 fused to the bacterial gene uidA encoding […] (GUS). The position of the elicitor response element (ERE), the silencing element (SE) and the TATA box are shown (TATA). The transcriptional start site is indicated by an arrow. The common sequence between the wild-type (WT; SEQ ID NO:45) and mutant oligonucleotides m1 to m5 (SEQ ID NOs:1 to 5) is indicated by dashed lines, and mutated nucleotides are represented by lowercase letters. FIG. 2B: EMSA studies using 10 μg of crude potato tuber nuclear preparation and 20,000 CPM of the ³²P labeled single-stranded CS oligonucleotides presented in FIG. 2A. FIG. 2C: EMSA studies using 10 ng of purified recombinant SEBF and 20,000 CPM of the ³²P labeled single-stranded CS oligonucleotides presented in FIG. 2A. FIG. 2D: The sequence from −52 to −27 of the PR-10a promoter fused to the uidA gene was replaced by the sequences presented in FIG. 2A. The resulting plasmids were electroporated in potato leaf protoplasts and the GUS activity was measured. The histogram represents fold activity to wild type (WT=1). […]"}, "[2]": {"target": "T2, SEBF (affinity purified, 29 and 28 kD bands) (Solanum tuberosum)", "T2 chain": "T1 chain", "assay": "southwestern; 29 and 28 kD bands each bind", "settings": "tags: none; label: 32P", "protocol": "FIG. 4 is a picture of a gel showing the purification of SEBF. Coomassie staining of proteins from each step of the purification of SEBF (lanes 1 through 4). The crude nuclear extract (Crude; lane 1) was loaded on a Q-Sepharose™ column. SEBF was eluted at 400 mM NaCl (Q-seph; lane 2) before two rounds of affinity purification (Aff.1, Aff.2; lane 3, lane 4). […] Arrows indicate the two purified bands. Molecular weight markers are indicated on the left.\nBoth of these proteins were subjected to N-terminal sequence analysis."}, "SEBF (recombinant) [3]": {"target": "T1, SEBF (recombinant)", "assay": "EMSA; 10 ng recombinant SEBF", "settings": "tags: GST fusion expressed in E. coli BL21; GST cleaved with thrombin; label: 32P", "description": "as §1"}, "SEBF (recombinant) [4]": {"target": "T1, SEBF (recombinant)", "assay": "EMSA; specificity stated similar to native SEBF", "settings": "tags: GST fusion expressed in E. coli BL21; GST cleaved with thrombin; label: 32P", "description": "as §1"}}}
{"binder": "TCTAGATCGAATTCCGCTCGACCGG (ssDNA)", "note": "[SE m1]", "values": [{"measurement": "binding result", "setting": "SEBF (recombinant) [1]", "value": "no binding"}]}
{"binder": "TCTAGACTGTCACTTGTTTTTTTTA (ssDNA)", "note": "[PR-10a SE coding strand WT]", "values": [{"measurement": "binding result", "setting": "[2]", "value": "binds"}, {"measurement": "binding result", "setting": "SEBF (recombinant) [3]", "value": "binds"}]}
{"binder": "CATGGACTGTCACTTGTTTTTTTTA (ssDNA)", "note": "[SE m2]", "values": [{"measurement": "binding result", "setting": "SEBF (recombinant) [4]", "value": "binds"}]}
